Measured values published in PMC8833195.

Tests used:
Experiment in all cases: SEC
[1] = molecular target: HA ectodomain of H1N1 A/California/07/2009 with K51I + E103I (influenza A virus H1N1 A/California/07/2009)
[2] = molecular target: repaired and stabilized HA of H3N2 A/Brisbane/10/2007 (P194L in HA1) (influenza A virus H3N2 A/Brisbane/10/2007)
[3] = molecular target: repaired and stabilized HA of H3N2 A/Singapore/INFIMH/16/0019/2016 (P194L in HA1) (influenza A virus H3N2 A/Singapore/INFIMH/16/0019/2016)

Substance: HA ectodomain of H1N1 A/California/07/2009 with K51I + E103I (domain or fragment)
- stoichiometry N [1]: 3

Substance: repaired and stabilized HA of H3N2 A/Brisbane/10/2007 (P194L in HA1) (domain or fragment)
- stoichiometry N [2]: 3

Substance: repaired and stabilized HA of H3N2 A/Singapore/INFIMH/16/0019/2016 (P194L in HA1) (domain or fragment)
- stoichiometry N [3]: 3
